Results reported in the RNAGym collection of RNA variant scans (doi:10.7554/elife.80360).

B1: Twister Ribozyme (parent)
chain: AACACUGCCAAUGCCGGUCCCAAGCCCGGAUAAAAGUGGAGGGGGCGG

Variants of: B1
Assay: self-cleavage, relative activity (ratio to wild type); higher = more cleavage; co-transcriptional

Variant | self-cleavage
AACACUGCCAAUGCGGGUCCCAAGCCCGGAUAAAUGUGGAGGGGGCGG [C15G A35U] | 0.0985
AACACUGCCAAUGCAGGUCCCAAGCCCGGAUAAAAGUGGAGGAGGCGG [C15A G43A] | 0.299
AACACUGCCAAUGCGGGUCCCAAGCCCGUAUAAAAGUGGAGGGGGCGG [C15G G29U] | 0.11
AACACUGCCAAUGCAAGUCCCAAGCCCGGAUAAAAGUGGAGGGGGCGG [C15A G16A] | 0.351
AACACUGCCAAUGCAUGUCCCAAGCCCGGAUAAAAGUGGAGGGGGCGG [C15A G16U] | 0.34
AACACUGCCAAUGCACGUCCCAAGCCCGGAUAAAAGUGGAGGGGGCGG [C15A G16C] | 0.264
AACACUGCCAAUGCGGGUCCCAAGCCCGGAGAAAAGUGGAGGGGGCGG [C15G U31G] | 0.153
AACACUGCCAAUGCGGGUCCCAAGCCCGGACAAAAGUGGAGGGGGCGG [C15G U31C] | 0.108
AACACUGCCAAUGCGGGUCCCAAGCCCGGAUAAAAGUGGAGGAGGCGG [C15G G43A] | 0.0569
AACACUGCCAAUGCAGGUCCCAAGCCCGGAUAAAAGUGGUGGGGGCGG [C15A A40U] | 0.116
AACACUGCCAAUGCAGGUCCCAAGCCCGGAUAUAAGUGGAGGGGGCGG [C15A A33U] | 0.541
AACACUGCCAAUGCAGGUCCCAAGCCCGGAUAGAAGUGGAGGGGGCGG [C15A A33G] | 0.578
AACACUGCCAAUGCGGGUCCCAAGCCCGGAUGAAAGUGGAGGGGGCGG [C15G A32G] | 0.0996
AACACUGCCAAUGCGGGUCCCAAGCCCGGAUUAAAGUGGAGGGGGCGG [C15G A32U] | 0.0633
AACACUGCCAAUGCGGGUCCCAAGCCCGGAUAAAAGUGGAGAGGGCGG [C15G G42A] | 0.0628
AACACUGCCAAUGCGGGUCCCAAGCCCGGAUAAAAGUGGAGUGGGCGG [C15G G42U] | 0.084
AACACUGCCAAUGCAGGUCCCAAGCCCGGGUAAAAGUGGAGGGGGCGG [C15A A30G] | 0.492
AACACUGCCAAUGCAGGUCCCAAGCCCGGAUAACAGUGGAGGGGGCGG [C15A A34C] | 0.156
AACACUGCCAAUGCAGGUCCCAAGCCCGGAUAAGAGUGGAGGGGGCGG [C15A A34G] | 0.422
AACACUGCCAAUGCAGGUCCCAAGCCCGGAUAAAAGUGGAGGGGGCGC [C15A G48C] | 0.715
AACACUGCCAAUGCAGGUCCCAAGCCCGGAUAAAAGUGGAGGGGGCGA [C15A G48A] | 0.528
AACACUGCCAAUGCAGGUCCCAAGCCCGGAUAAAAGUGGAGGGGGCGU [C15A G48U] | 0.573
AACACUGCCAAUGCUGGUCCCAUGCCCGGAUAAAAGUGGAGGGGGCGG [C15U A23U] | 0.291
AACACUGCCAAUGCGGGUCCCAAGCCCGGAUAGAAGUGGAGGGGGCGG [C15G A33G] | 0.0911
AACACUGCCAAUGCGGGUCCCAAGCCCGGAUACAAGUGGAGGGGGCGG [C15G A33C] | 0.0859
AACACUGCCAAUGCAGCUCCCAAGCCCGGAUAAAAGUGGAGGGGGCGG [C15A G17C] | 0.0439
AACACUGCCAAUGCGGGUCCCAAGCCCGGAUAAAAGAGGAGGGGGCGG [C15G U37A] | 0.0636

Variant | self-cleavage
AACACUGCCAAUGCGGGUCCCAAGCCCGGAUAAAAGGGGAGGGGGCGG [C15G U37G] | 0.143
AACACUGCCAAUGCGGGUCCCAAGCCCGGAUAAAAGCGGAGGGGGCGG [C15G U37C] | 0.114
AACACUGCCAAUGCAGGUCCCAAGCCCGGAUAAAAGUGGACGGGGCGG [C15A G41C] | 0.16
AACACUGCCAAUGCAGGUCCCAAGCCCGGAUAAAAGUGGAAGGGGCGG [C15A G41A] | 0.189
AACACUGCCAAUGCAGGUCCCCAGCCCGGAUAAAAGUGGAGGGGGCGG [C15A A22C] | 0.533
AACACUGCCAAUGCAGGUCCCAAGUCCGGAUAAAAGUGGAGGGGGCGG [C15A C25U] | 0.436
AACACUGCCAAUGCAGGUCCCAAGACCGGAUAAAAGUGGAGGGGGCGG [C15A C25A] | 0.0919
AACACUGCCAAUGCAGGUCCCAAGCCCGGAUAAAAGUGAAGGGGGCGG [C15A G39A] | 0.156
AACACUGCCAAUGCAGGGCCCAAGCCCGGAUAAAAGUGGAGGGGGCGG [C15A U18G] | 0.089
AACACUGCCAAUGCAGGUCCCAAGCCCGGAUGAAAGUGGAGGGGGCGG [C15A A32G] | 0.583
AACACUGCCAAUGCAGGUCCCAAGCCCGGAUCAAAGUGGAGGGGGCGG [C15A A32C] | 0.529
AACACUGCCAAUGCAGGUCCCAAGCCCGGAUUAAAGUGGAGGGGGCGG [C15A A32U] | 0.667
AACACUGCCAAUGCGGGGCCCAAGCCCGGAUAAAAGUGGAGGGGGCGG [C15G U18G] | 0.0953
AACACUGCCAAUGCGGGUCCCAAGCCCGGCUAAAAGUGGAGGGGGCGG [C15G A30C] | 0.0706
AACACUGCCAAUGCGGGUCCCAAGCCCGGGUAAAAGUGGAGGGGGCGG [C15G A30G] | 0.123
AACACUGCCAAUGCGGGUCACAAGCCCGGAUAAAAGUGGAGGGGGCGG [C15G C20A] | 0.0716
AACACUGCCAAUGCGGGUCCCCAGCCCGGAUAAAAGUGGAGGGGGCGG [C15G A22C] | 0.0849
AACACUGCCAAUGCAGGUCCCAAGCCCGGAUAAAAAUGGAGGGGGCGG [C15A G36A] | 0.165
AACACUGCCAAUGCAGGUCCCAGGCCCGGAUAAAAGUGGAGGGGGCGG [C15A A23G] | 0.141
AACACUGCCAAUGCAGGUCCCAUGCCCGGAUAAAAGUGGAGGGGGCGG [C15A A23U] | 0.0658
AACACUGCCAAUGCGGGUCCCAAGCCCGGAUAAAAGUGCAGGGGGCGG [C15G G39C] | 0.104
AACACUGCCAAUGCGGGUCCCAAGCCCGGAUAAAAGUGUAGGGGGCGG [C15G G39U] | 0.0441
AACACUGCCAAUGCGGGUCCCAAGCCCGGAUAAAAAUGGAGGGGGCGG [C15G G36A] | 0.0815
AACACUGCCAAUGCAGGUCGCAAGCCCGGAUAAAAGUGGAGGGGGCGG [C15A C20G] | 0.0632
AACACUGCCAAUGCUGGUCCCAAGCCCGGAUCAAAGUGGAGGGGGCGG [C15U A32C] | 0.678
AACACUGCCAAUGCAGGUCCCAAGCCCGGAUAAAUGUGGAGGGGGCGG [C15A A35U] | 0.774
AACACUGCCAAUGCAGGUCCCAAGCCCGGAUAAACGUGGAGGGGGCGG [C15A A35C] | 0.546
